Assay results from the supplement of paper PMC11246515.
± gives the standard deviation of the averaged measurements.

Assay: total protein half-life in vivo (active degradation + dilution); higher = more stable protein
[1] = E. coli NCM3722 delta-clpP delta-lon delta-hslV, growth: N-lim chemostat, doubling time 6 h
[2] = E. coli NCM3722 delta-clpP, growth: N-lim chemostat, doubling time 6 h
[3] = E. coli NCM3722 delta-lon, growth: N-lim chemostat, doubling time 6 h
[4] = E. coli NCM3722 delta-smpB, growth: N-lim chemostat, doubling time 6 h
[5] = wild type E. coli NCM3722, growth: C-lim chemostat, doubling time 3 h
[6] = wild type E. coli NCM3722, growth: C-lim chemostat, doubling time 6 h
[7] = wild type E. coli NCM3722, growth: C-lim chemostat, doubling time 12 h
[8] = wild type E. coli NCM3722, growth: N-lim chemostat, doubling time 6 h
[9] = wild type E. coli NCM3722, growth: N-lim chemostat, doubling time 12 h
[10] = wild type E. coli NCM3722, growth: P-lim chemostat, doubling time 6 h
[11] = wild type E. coli NCM3722, growth: P-lim chemostat, doubling time 12 h
[12] = E. coli NCM3722 delta-hslV, growth: N-lim chemostat, doubling time 6 h

## MTIAIVIGTHGWAAEQLLKTAEMLLGEQENVGWIDFVPGENAETLIEKYNAQLAKLDTTKGVLFLVDTWGGSPFNAASRIVVDKEHYEVIAGVNIPMLVETLMARDDDPSFDELVALAVETGREGVKALKAKPVEKAAPAPAAAAPKAAPTPAKPMGPNDYMVIGLARIDDRLIHGQVATRWTKETNVSRIIVVSDEVAADTVRKTLLTQVAPPGVTAHVVDVAKMIRVYNNPKYAGERVMLLFTNPTDVERLVEGGVKITSVNVGGMAFRQGKTQVNNAVSVDEKDIEAFKKLNARGIELEVRKVSTDPKLKMMDLISKIDK
[1]
  total protein half-life in vivo: 6.3 ± 0.43 h
[2]
  total protein half-life in vivo: 6.46 ± 1.2 h
[3]
  total protein half-life in vivo: 6.12 ± 0.73 h
[4]
  total protein half-life in vivo: 5.94 ± 0.051 h
[5]
  total protein half-life in vivo: 3.14 ± 0.049 h
[6]
  total protein half-life in vivo: 6.91 ± 0.14 h
[7]
  total protein half-life in vivo: 13 ± 0.89 h
[8]
  total protein half-life in vivo: 5.95 ± 0.48 h
[9]
  total protein half-life in vivo: 12 ± 0.24 h
[10]
  total protein half-life in vivo: 6.111 ± 0.044 h
[11]
  total protein half-life in vivo: 14.3 ± 0.52 h

## MTIKNKMLLGALLLVTSAAWAAPATAGSTNTSGISKYELSSFIADFKHFKPGDTVPEMYRTDEYNIKQWQLRNLPAPDAGTHWTYMGGAYVLISDTDGKIIKAYDGEIFYHR
[1]
  total protein half-life in vivo: 5.04 ± 0.4 h
[2]
  total protein half-life in vivo: 5.973 ± 0.043 h
[12]
  total protein half-life in vivo: 6.26 ± 0.2 h
[3]
  total protein half-life in vivo: 5.84 ± 0.39 h
[4]
  total protein half-life in vivo: 6.59 ± 0.59 h
[5]
  total protein half-life in vivo: 3.09 ± 0.24 h
[6]
  total protein half-life in vivo: 5.37 ± 0.16 h
[7]
  total protein half-life in vivo: 8.3 ± 1.4 h
[8]
  total protein half-life in vivo: 6.03 ± 0.036 h
[9]
  total protein half-life in vivo: 11.5 ± 0.32 h
[10]
  total protein half-life in vivo: 5.446 ± 0.049 h
[11]
  total protein half-life in vivo: 13.4 ± 2.4 h

## MTIKNVICDIDGVLMHDNVAVPGAAEFLHGIMDKGLPLVLLTNYPSQTGQDLANRFATAGVDVPDSVFYTSAMATADFLRRQEGKKAYVVGEGALIHELYKAGFTITDVNPDFVIVGETRSYNWDMMHKAAYFVANGARFIATNPDTHGRGFYPACGALCAGIEKISGRKPFYVGKPSPWIIRAALNKMQAHSEETVIVGDNLRTDILAGFQAGLETILVLSGVSSLDDIDSMPFRPSWIYPSVAEIDVI [P0AF24]
[1]
  total protein half-life in vivo: 6.46 ± 0.48 h
[2]
  total protein half-life in vivo: 5.48 ± 0.16 h
[12]
  total protein half-life in vivo: 5.64 ± 0.15 h
[3]
  total protein half-life in vivo: 5.88 ± 0.64 h
[4]
  total protein half-life in vivo: 5.58 ± 0.17 h
[5]
  total protein half-life in vivo: 3.14 ± 0.041 h
[6]
  total protein half-life in vivo: 5.71 ± 0.07 h
[7]
  total protein half-life in vivo: 11.6 ± 1.2 h
[8]
  total protein half-life in vivo: 5.465 ± 0.045 h
[9]
  total protein half-life in vivo: 9.89 ± 0.17 h
[10]
  total protein half-life in vivo: 6 ± 0.44 h
[11]
  total protein half-life in vivo: 10.4 ± 2.1 h

## MTILNHTLGFPRVGLRRELKKAQESYWAGNSTREELLAVGRELRARHWDQQKQAGIDLLPVGDFAWYDHVLTTSLLLGNVPARHQNKDGSVDIDTLFRIGRGRAPTGEPAAAAEMTKWFNTNYHYMVPEFVKGQQFKLTWTQLLDEVDEALALGHKVKPVLLGPVTWLWLGKVKGEQFDRLSLLNDILPVYQQVLAELAKRGIEWVQIDEPALVLELPQAWLDAYKPAYDALQGQVKLLLTTYFEGVTPNLDTITALPVQGLHVDLVHGKDDVAELHKRLPSDWLLSAGLINGRNVWRADLTEKYAQIKDIVGKRDLWVASSCSLLHSPIDLSVETRLDAEVKSWFAFALQKCHELALLRDALNSGDTAALAEWSAPIQARRHSTRVHNPAVEKRLAAITAQDSQRANVYEVRAEAQRARFKLPAWPTTTIGSFPQTTEIRTLRLDFKKGNLDANNYRTGIAEHIKQAIVEQERLGLDVLVHGEAERNDMVEYFGEHLDGFVFTQNGWVQSYGSRCVKPPIVIGDISRPAPITVEWAKYAQSLTDKPVKGMLTGPVTILCWSFPREDVSRETIAKQIALALRDEVADLEAAGIGIIQIDEPALREGLPLRRSDWDAYLQWGVEAFRINAAVAKDDTQIHTHMCYCEFNDIMDSIAALDADVITIETSRSDMELLESFEEFDYPNEIGPGVYDIHSPNVPSVEWIEALLKKAAKRIPAERLWVNPDCGLKTRGWPETRAALANMVQAAQNLRRG
[1]
  total protein half-life in vivo: 3.21 ± 0.81 h
[2]
  total protein half-life in vivo: 2.4 ± 0.23 h
[12]
  total protein half-life in vivo: 2.34 ± 0.34 h
[3]
  total protein half-life in vivo: 2.938 ± 0.012 h
[4]
  total protein half-life in vivo: 2.6 ± 0.53 h
[5]
  total protein half-life in vivo: 2.48 ± 0.19 h
[6]
  total protein half-life in vivo: 4.22 ± 0.071 h
[7]
  total protein half-life in vivo: 6.91 ± 0.33 h
[8]
  total protein half-life in vivo: 2.56 ± 0.063 h
[9]
  total protein half-life in vivo: 3.593 ± 0.023 h
[10]
  total protein half-life in vivo: 4.14 ± 0.21 h
[11]
  total protein half-life in vivo: 6.88 ± 1.1 h

## MTITDLVLILFIAALLAFAIYDQFIMPRRNGPTLLAIPLLRRGRIDSVIFVGLIVILIYNNVTNHGALITTWLLSALALMGFYIFWIRVPKIIFKQKGFFFANVWIEYSRIKAMNLSEDGVLVMQLEQRRLLIRVRNIDDLEKIYKLLVSTQ
[1]
  total protein half-life in vivo: 7.14 h
[2]
  total protein half-life in vivo: 7.25 h
[12]
  total protein half-life in vivo: 6.58 h
[4]
  total protein half-life in vivo: 6.13 ± 0.82 h
[5]
  total protein half-life in vivo: 2.77 ± 0.15 h
[6]
  total protein half-life in vivo: 4.79 h
[8]
  total protein half-life in vivo: 5.6 h
[9]
  total protein half-life in vivo: 8.94 h

## MTIYTLSHGSLKLDVSDQGGVIEGFWRDTTPLLRPGKKSGVATDASCFPLVPFANRVSGNRFVWQGREYQLQPNVEWDAHYLHGDGWLGEWQCVSHSDDSLCLVYEHRSGVYHYRVSQAFHLTADTLTVTLSVTNQGAETLPFGTGWHPYFPLSPQTRIQAQASGYWLEREQWLAGEFCEQLPQELDFNQPAPLPRQWVNNGFAGWNGQARIEQPQEGYAIIMETTPPAPCYFIFVSDPAFDKGYAFDFFCLEPMSHAPDDHHRPEGGDLIALAPGESTTSEMSLRVEWL
[1]
  total protein half-life in vivo: 6.63 h
[5]
  total protein half-life in vivo: 0.925 h
[7]
  total protein half-life in vivo: 10.7 h
[10]
  total protein half-life in vivo: 6.42 h
[11]
  total protein half-life in vivo: 11.3 ± 0.92 h

## MTKHARFFLLPSFILISAALIAGCNDKGEEKAHVGEPQVTVHIVKTAPLEVKTELPGRTNAYRIAEVRPQVSGIVLNRNFTEGSDVQAGQSLYQIDPATYQANYDSAKGELAKSEAAAAIAHLTVKRYVPLVGTKYISQQEYDQAIADARQADAAVIAAKATVESARINLAYTKVTAPISGRIGKSTVTEGALVTNGQTTELATVQQLDPIYVDVTQSSNDFMRLKQSVEQGNLHKENATSNVELVMENGQTYPLKGTLQFSDVTVDESTGSITLRAVFPNPQHTLLPGMFVRARIDEGVQPDAILIPQQGVSRTPRGDATVLIVNDKSQVEARPVVASQAIGDKWLISEGLKSGDQVIVSGLQKARPGEQVKATTDTPADTASK
[7]
  total protein half-life in vivo: 13.2 h

## MTKIIAVTACPSGVAHTYMAAEALESAAKAKGWEVKVETQGSIGLENELTAEDVASADMVILTKDIGIKFEERFAGKTIVRVNISDAVKRADAIMSKIEAHLAQTA
[1]
  total protein half-life in vivo: 4.85 ± 0.3 h
[2]
  total protein half-life in vivo: 5.65 h
[7]
  total protein half-life in vivo: 8.01 ± 8.9 h

## MTKLKLLALGVLIATSAGVAHAEGKFSLGAGVGVVEHPYKDYDTDVYPVPVINYEGDNFWFRGLGGGYYLWNDATDKLSITAYWSPLYFKAKDSGDHQMRHLDDRKSTMMAGLSYAHFTQYGYLRTTLAGDTLDNSNGIVWDMAWLYRYTNGGLTVTPGIGVQWNSENQNEYYYGVSRKESARSGLRGYNPNDSWSPYLELSASYNFLGDWSVYGTARYTRLSDEVTDSPMVDKSWTGLISTGITYKF [P0A908]
[1]
  total protein half-life in vivo: 6.14 ± 1.1 h
[2]
  total protein half-life in vivo: 7.17 ± 0.13 h
[12]
  total protein half-life in vivo: 6.01 ± 1.1 h
[3]
  total protein half-life in vivo: 6.05 ± 1 h
[4]
  total protein half-life in vivo: 5.96 ± 0.079 h
[5]
  total protein half-life in vivo: 2.55 ± 0.14 h
[6]
  total protein half-life in vivo: 5.81 ± 0.46 h
[7]
  total protein half-life in vivo: 13.6 ± 2.3 h
[8]
  total protein half-life in vivo: 6.35 ± 0.63 h
[9]
  total protein half-life in vivo: 14 ± 1.4 h
[10]
  total protein half-life in vivo: 5.7 ± 0.23 h
